The results in this text go back to patent US20220259593A1, “CONTROL OF MAMMALIAN GENE DOSAGE USING CRISPR” (The Regents of the University of California, priority 2019, published 2022).

Positions count from the first letter of the chain named.

The series relates to K562 CRISPRi cells. Put plainly: Constant region variant library pooled growth screen, K562. It is filed as cell-based, human. The settings on record: sgRNA constant region variants. The essentials: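 Pooled library transduced into K562 CRISPRi cells in duplicate, puromycin-selected, grown at >2000× coverage and sampled after 4 to 8 days. Phenotypes per targeting sequence:constant region pair were normalized to the unmodified-scaffold pairing to give relative activity.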

The mark [1] stands for this setting: activity relative to the original, un-modified constant region cr995.
[2] abbreviates: relative to the original, un-modified constant region cr995 (= 1).

B1: cr065 (nucleic acid)
guide: GTATACGAGCTAAGCTGGAAACAGCATAGCAAGTTTAAATAAGGCTAGTCCGTTATCAACTTGAAAAAGTGGCACCGAGTCGGTGCT
modifications: listed as DNA, chemistry not fully specified
On to B1, for which, under setting [1], the Mean relative activity is −0.003148.

B2: cr942 (nucleic acid)
guide: B1 guide with A3T, C6A, T56C, A66C
modifications: listed as DNA, chemistry not fully specified
In the case of B2, the Mean relative activity under setting [1] was 1.087.

B3: cr233 (nucleic acid)
guide: B1 guide with A3T, C6A, G33C, G77C, C81G
modifications: listed as DNA, chemistry not fully specified
B3: under setting [1], the Mean relative activity is on record as −0.003511.

B4: cr179 (nucleic acid)
guide: B1 guide with A3T, C6A, T34G, C76T, G82A
modifications: listed as DNA, chemistry not fully specified
The molecule B4 showed a Mean relative activity under setting [1] of −0.004493.

B5: cr882 (nucleic acid)
guide: B1 guide with A3T, C6A, G63C
modifications: listed as DNA, chemistry not fully specified
For B5, under setting [1], the Mean relative activity came to 1.027.

B6: cr990 (nucleic acid)
guide: B1 guide with A3T, C6A, G29T, T34C, C57G
modifications: listed as DNA, chemistry not fully specified
In the case of B6, the Mean relative activity under setting [1] was −0.0163.

B7: cr929 (nucleic acid)
guide: B1 guide with A3T, C6A, G72T
modifications: listed as DNA, chemistry not fully specified
On to B7, for which the Mean relative activity under setting [2] came out at 1.025.

B8: cr235 (nucleic acid)
guide: B1 guide with A3T, C6A, T61A, A65G, A68T
modifications: listed as DNA, chemistry not fully specified
Turning to B8, the Mean relative activity under setting [1] is 1.027.

B9: cr790 (nucleic acid)
guide: B1 guide with A3T, C6A, G33C, G77A, C81T
modifications: listed as DNA, chemistry not fully specified
For the molecule B9, the Mean relative activity under setting [1] is reported as −0.01697.

B10: cr802 (nucleic acid)
guide: B1 guide with A3T, C6A, G43C, C51G, C60G, G69C, C75G, G83C
modifications: listed as DNA, chemistry not fully specified
With B10, under setting [1], the Mean relative activity is reported as −0.005377.

B11: cr540 (nucleic acid)
guide: B1 guide with A3T, C6A, G33C, G43T, C51A
modifications: listed as DNA, chemistry not fully specified
In the case of B11, under setting [1], the Mean relative activity is given as −0.0122.

B12: cr589 (nucleic acid)
guide: B1 guide with A3T, C6A, G43T, C45A, G48T, C51A
modifications: listed as DNA, chemistry not fully specified
The molecule B12 registered a Mean relative activity under setting [1] of −0.005108.

B13: cr056 (nucleic acid)
guide: B1 guide with A3G, A5C, C6A
modifications: listed as DNA, chemistry not fully specified
B13 registered a Mean relative activity under setting [1] of −0.009512.

B14: cr896 (nucleic acid)
guide: B1 guide with A3T, C6A, C73A, A74C, T84G, G85T
modifications: listed as DNA, chemistry not fully specified
Take B14: the Mean relative activity under setting [2] turned out to be 1.025.

B15: cr036 (nucleic acid)
guide: B1 guide with T2C, A3T, T4A, C6A
modifications: listed as DNA, chemistry not fully specified
Under setting [1], B15 showed a Mean relative activity of −0.005679.

B16: cr784 (nucleic acid)
guide: B1 guide with A3T, C6A, G43T, G44C, C50T
modifications: listed as DNA, chemistry not fully specified
On to B16, for which the Mean relative activity under setting [1] is reported as −0.01213.

B17: cr122 (nucleic acid)
guide: B1 guide with A3T, C6A, G33C, C57T, A65T
modifications: listed as DNA, chemistry not fully specified
Under setting [1], B17 had a Mean relative activity of −0.003408.

B18: cr135 (nucleic acid)
guide: B1 guide with A3T, C6A, G43C, C51G, C60A, G69T, A74G, T84C
modifications: listed as DNA, chemistry not fully specified
Under setting [1], B18 displayed a Mean relative activity of −0.00878.

B19: cr583 (nucleic acid)
guide: B1 guide with A3T, C6A, A41C, G52A, A58T
modifications: listed as DNA, chemistry not fully specified
With B19, the Mean relative activity under setting [1] is recorded as −0.01013.

B20: cr610 (nucleic acid)
guide: B1 guide with A3T, C6A, C60G, T61A, A68T, G69C, G72A, C86T
modifications: listed as DNA, chemistry not fully specified
Turning to B20, under setting [2], the Mean relative activity is 1.027.

B21: cr673 (nucleic acid)
guide: B1 guide with A3T, C6A, G33C, A78T
modifications: listed as DNA, chemistry not fully specified
Under setting [1], B21 returned a Mean relative activity of −0.005072.

B22: cr686 (nucleic acid)
guide: B1 guide with A3T, C6A, G33C, T80A
modifications: listed as DNA, chemistry not fully specified
As to B22, the Mean relative activity under setting [1] is −0.004019.

B23: cr412 (nucleic acid)
guide: B1 guide with A3T, C6A, C60G, G69C
modifications: listed as DNA, chemistry not fully specified
The molecule B23 came in with a Mean relative activity under setting [2] of 1.025.

B24: cr034 (nucleic acid)
guide: B1 guide with T2C, C6A
modifications: listed as DNA, chemistry not fully specified
B24: the Mean relative activity under setting [1] is given as −0.007191.

B25: cr565 (nucleic acid)
guide: B1 guide with A3T, C6A, T61G, T62C, A67G, A68C
modifications: listed as DNA, chemistry not fully specified
In turn, B25 registered a Mean relative activity under setting [1] of 1.085.

B26: cr894 (nucleic acid)
guide: B1 guide with A3T, C6A, G33C, C60T, G69A
modifications: listed as DNA, chemistry not fully specified
Molecule B26 came in with a Mean relative activity under setting [1] of −0.003408.

B27: cr053 (nucleic acid)
guide: B1 guide with T2A, A3T, A5C, C6A
modifications: listed as DNA, chemistry not fully specified
On to B27, for which the Mean relative activity under setting [1] is −0.003704.

B28: cr884 (nucleic acid)
guide: B1 guide with A3T, C6A, A59C, T62A, A67T, T70G, G72T, C86A
modifications: listed as DNA, chemistry not fully specified
In the case of B28, under setting [2], the Mean relative activity turned out to be 1.027.

B29: cr118 (nucleic acid)
guide: B1 guide with A3T, C6A, A23G
modifications: listed as DNA, chemistry not fully specified
B29: under setting [2], the Mean relative activity stood at 1.025.

B30: cr797 (nucleic acid)
guide: B1 guide with A3T, C6A, T54G
modifications: listed as DNA, chemistry not fully specified
For the molecule B30, under setting [1], the Mean relative activity stood at 1.027.

B31: cr383 (nucleic acid)
guide: B1 guide with A3T, C6A, G33C, G77T, C81A
modifications: listed as DNA, chemistry not fully specified
The molecule B31 displayed a Mean relative activity under setting [1] of −0.005505.

B32: cr515 (nucleic acid)
guide: B1 guide with A3T, C6A, G18T
modifications: listed as DNA, chemistry not fully specified
Consider B32, for which, under setting [1], the Mean relative activity is 1.027.

B33: cr551 (nucleic acid)
guide: B1 guide with A3T, C6A, A26T
modifications: listed as DNA, chemistry not fully specified
Consider B33, for which, under setting [1], the Mean relative activity is −0.109.

B34: cr661 (nucleic acid)
guide: B1 guide with A3T, C6A, G29A, G52C, A66T
modifications: listed as DNA, chemistry not fully specified
Turning to B34, the Mean relative activity under setting [1] is listed as −0.01151.

B35: cr434 (nucleic acid)
guide: B1 guide with A3T, C6A, G63C, A65T
modifications: listed as DNA, chemistry not fully specified
B35 had a Mean relative activity under setting [1] of 1.027.

B36: cr329 (nucleic acid)
guide: B1 guide with A3T, C6A, G33C, G43A, C51T
modifications: listed as DNA, chemistry not fully specified
For the molecule B36, under setting [1], the Mean relative activity is given as −0.007607.

B37: cr033 (nucleic acid)
guide: B1 guide with A3T, T4A, C6A, G7A
modifications: listed as DNA, chemistry not fully specified
B37 registered a Mean relative activity under setting [1] of −0.004656.

B38: cr058 (nucleic acid)
guide: B1 guide with A3T, T4G, A5C, C6A
modifications: listed as DNA, chemistry not fully specified
On to B38, for which, under setting [1], the Mean relative activity is on record as −0.003151.

B39: cr858 (nucleic acid)
guide: B1 guide with A3T, C6A, A20G
modifications: listed as DNA, chemistry not fully specified
Turning to B39, under setting [2], the Mean relative activity was determined as 1.025.
